System: primary mouse mammary gland epithelial cells (MECs)
Assay: Western blotting of RANKL-stimulated primary mouse mammary gland epithelial cells
Type: cell-based
Settings: RANKL 1 μg/ml
Protocol: a, Western blotting for phosphorylated (P) IKKα, total IKKα, phosphorylated (P) p65 NFκB, total p65 NFκB, phosphorylated (P) IκBα, and total IκBα in isolated primary mouse mammary gland epithelial cells (MECs) in response to RANKL stimulation (1 μg/ml). β-actin is shown as loading control. b, Western blotting for IKKα, IKKβ, IKKγ, phosphorylated (P) p65 NFκB, total p65 NFκB, phosphorylated (P) IκBα, and total IκBα in pooled late stage mammary adenocarconimas (n=4 for each lane) that developed in control, RANK^Δmam and IKKΔ^Δmam females. β-actin is shown as loading control c, Expression of RANK, CyclinD1, and p21 mRNA in late stage mammary adenocacinomas that developed in control, RANK^Δmam, and IKKα^Δmam females. Expression was determined by qRT-PCR. Data are mean values+/−sem. n=4 per group. d, Soft-Agar Colony Formation Assay. Growth of human SKBR3 breast cancer cells in soft agar in response to stimulation with RANKL (1 μg/ml) or EGF (100 ng/ml). Anchorage-independent, macroscopic colonies formed after 18 days in culture with RANKL, which was prevented by the decoy receptor OPG (1 μg/ml). […] Apoptosis was detected by immunostaining for active Caspase 3. f, Apoptotic nuclei of epithelial cells (arrows) are shown for representative mammary gland sections. Magnifications×40. g, Quantification of mammary epithelial apoptosis. A minimum of 5000 nuclei was counted for each mouse. […]

B1: RANKL: recombinant RANKL protein, ligand of RANK, used as stimulus (1 μg/ml or 1 μg i.p.) (protein, UniProt O35235 139-316, looked up)
Tumor necrosis factor ligand …: FSGAPAMMEGSWLDVAQRGKPEAQPFAHLTINAASIPSGSHKVTLSSWYHDRGWAKISNMTLSNGKLRVNQDGFYYLYANICFRHHETSGSVPTDYLQLMVYVVKTSIKIPSSHNLMKGGSTKNWSGNSEFHFYSINVGGFFKLRAGEEISIQVSNPSLLDPDQDATYFGAFKVQDID
p65 NFκB and IκBα phosphorylation: resulted in p65 NFκB and IκBα phosphorylation
phosphorylation of p38-MAPKs and ERK: triggered phosphorylation of p38-MAPKs and ERK
